Non-standard residues stand in square brackets, D forms with d. No end group written: not given here. *: point of attachment. Biotin = O=C1N[C@H]2[C@H](CS[C@H]2CCCCC(=O)*)N1; sY = N[C@@H](Cc1ccc(OS(=O)(=O)O)cc1)C(=O)O A value given as a limit tells only on which side of the number the result lay.

The values below come from patent publication US20220396632A1 (VERSEAU THERAPEUTICS, published 2022).

Test [1] deals with T1, Human PSGL-1(ECD)-HIS (human, UniProt Q14242 42-319).
T1 construct: also called Human PSGL-1-His
T1 sequence: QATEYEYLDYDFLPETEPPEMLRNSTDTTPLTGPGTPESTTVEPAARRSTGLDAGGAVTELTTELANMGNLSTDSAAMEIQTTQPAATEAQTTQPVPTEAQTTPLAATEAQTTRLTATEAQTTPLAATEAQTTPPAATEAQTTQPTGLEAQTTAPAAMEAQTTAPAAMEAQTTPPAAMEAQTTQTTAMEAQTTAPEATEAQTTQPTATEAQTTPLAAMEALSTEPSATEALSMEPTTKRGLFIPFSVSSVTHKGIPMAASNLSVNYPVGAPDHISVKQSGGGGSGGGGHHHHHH
The test is described as follows: ELISA, plate-immobilized protein. (An ELISA detects its analyte on a solid surface through an enzyme-linked reagent.)

In test [2] the target is T2, Recombinant human PSGL-1(ECD)-hFc1 (R&D Systems, Cat. 3345-PS) (human, UniProt Q14242 42-305).
T2 construct: Bought; Gln42-Val295 counted on AAC50061; also called PSGL-1-Fc; PSGL-1-hFc1 chimera; not shown: human IgG1 Fc, Pro100-Lys330
T2 sequence: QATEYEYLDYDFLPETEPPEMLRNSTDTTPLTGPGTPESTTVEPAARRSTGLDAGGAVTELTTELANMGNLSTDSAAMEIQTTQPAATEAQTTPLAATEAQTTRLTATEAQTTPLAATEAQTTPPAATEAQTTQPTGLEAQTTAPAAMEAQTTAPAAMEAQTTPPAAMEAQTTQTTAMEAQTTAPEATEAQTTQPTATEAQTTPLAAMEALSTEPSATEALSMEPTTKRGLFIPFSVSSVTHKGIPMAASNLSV
Description: Octet tandem; competitor 19J23. As to the method: (§1) Antibody binning was performed by ForteBio Octet® using a tandem assay format, with anti-human IgG biosensor-immobilized PSGL-1(ECD)-hFc1 protein, binding of competitor mAb followed by analyte antibody. As competition controls, the same antibody was competed against itself, and mAb competition was performed bidirectionally.
(§2) Antibody binning by tandem octet was performed by immobilizing 10 ug/mL PSGL-1(ECD)-hFc1 (R&D Systems, Cat. #3345-PS) in PBS, pH 7.4, onto anti-human IgG capture biosensors (ForteBio, Cat. #18-5060), binding of 100 nM competitor antibody for 300 sec., followed by binding of 100 nM of analyte mAb for 300 s in kinetic buffer (0.1% BSA in PBS containing 0.02% tween 20 and 0.05% sodium azide, pH 7.4). Synagis (Johnson et al. (1997) J. Infect. Dis. 176:1215-1224) served as a negative control mAb for competition. An Fc quench step (0.25 mg/mL human IgG Fcl; BioXcell, Cat. #BE0096, in kinetic buffer) was included when human mAbs were tested to prevent high background from the antibodies binding to the anti-human IgG biosensor. Biosensor regeneration buffer consisted of 10 mM glycine, pH 2.0.
In general terms: In BLI a coated tip is dipped into the sample, and binding shifts an interference pattern.

Test [3] deals with PSGL-1(ECD)-hFc1 S116A protein (Sino Biological) (human). The test is described as follows: ELISA, plate-bound peptide or protein. The procedure: (§3) A typical ELISA experiment involved binding of a single concentration or serially diluted mAb in assay buffer (3% BSA in PBS containing 0.05% Tween®20, pH 7.4) onto BSA blocked high binding microtiter plate half-wells (Corning Cat. #3690), which contained PSGL-1 protein or streptavidin-immobilized biotin peptide. After incubation for 45 min. at 37° C., the plate was washed 3 times with wash buffer (PBS containing 0.05% Tween®20, pH 7.4), and an appropriate HRP-conjugated secondary antibody added (25 ul/well) (HRP goat anti-mouse or anti-human IgG). After 45 min. incubation at 37° C., the plate was washed and antibody bound to plate-immobilized target was determined at A450 nm using HRP substrate (3,3′5,5′-tetramethylbenzidine (TMB)). For each antibody, duplicate values were averaged and assay background subtracted.
Chain of PSGL-1(ECD)-hFc1 S116A protein (Sino Biological) (human) (chain, as listed by the source S116A S116A): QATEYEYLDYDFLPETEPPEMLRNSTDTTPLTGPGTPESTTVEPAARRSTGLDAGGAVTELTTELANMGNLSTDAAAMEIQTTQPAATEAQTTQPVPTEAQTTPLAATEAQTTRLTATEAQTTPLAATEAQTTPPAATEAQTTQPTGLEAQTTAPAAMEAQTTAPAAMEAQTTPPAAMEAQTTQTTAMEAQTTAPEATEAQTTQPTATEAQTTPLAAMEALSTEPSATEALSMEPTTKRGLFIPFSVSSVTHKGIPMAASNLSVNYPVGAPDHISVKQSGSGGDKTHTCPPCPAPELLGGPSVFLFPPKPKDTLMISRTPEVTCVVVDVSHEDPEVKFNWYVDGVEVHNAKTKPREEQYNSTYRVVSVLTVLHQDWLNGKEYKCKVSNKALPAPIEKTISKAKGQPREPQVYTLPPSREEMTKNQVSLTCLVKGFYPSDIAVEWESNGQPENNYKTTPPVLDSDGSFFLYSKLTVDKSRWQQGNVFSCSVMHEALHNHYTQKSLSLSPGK

The target of test [4] is PSGL-1(ECD)-hFc1 I121A protein (Sino Biological) (human). The test is described as follows: ELISA, plate-bound peptide or protein. The procedure:
as §3

Test [5] addresses T3, Biotin PSGL-1(290-310) peptide (human, N-terminal acetyl; C-terminal Lys-biotin).
T3 peptide: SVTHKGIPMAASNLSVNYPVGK
The test is described as follows: ELISA, plate-bound peptide or protein. As to the method: as §3

The target of test [6] is PSGL-1(ECD)-hFc1 M119A protein (Sino Biological) (human). Description: ELISA, plate-bound peptide or protein. The procedure: as §3
Chain of PSGL-1(ECD)-hFc1 M119A protein (Sino Biological) (human) (chain, as listed by the source M119A M119A): as the sequence (chain, as listed by the source S116A S116A) above, with A75S, M78A counted along it
Test [7] addresses T4, 42-80 (C-terminal Lys-biotin).
T4 construct: also called Biotin PSGL-1(42-80) peptide
T4 peptide: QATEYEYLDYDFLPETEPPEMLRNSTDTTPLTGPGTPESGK
The test is described as follows: ELISA, streptavidin-immobilized biotin peptide. As to the method: as §3

Test [8] deals with T5, Biotin PSGL-1(42-62) peptide, unmodified (human, C-terminal Lys-biotin).
T5 construct: Residues 42-62 followed by GGGK-biotin; also called WT; wild-type
T5 peptide: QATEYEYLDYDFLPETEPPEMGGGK
The test is described as follows: ELISA, streptavidin-immobilized biotin peptide. The procedure:
as §3

Test [9] addresses T6, Biotin PSGL-1(105-125) peptide (human, N-terminal acetyl; C-terminal Lys-biotin).
T6 peptide: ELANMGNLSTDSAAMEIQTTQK
The test is described as follows: ELISA, streptavidin-immobilized biotin peptide. As to the method:
as §3

For test [10], the target named is T2, Recombinant human PSGL-1(ECD)-hFc1 (R&D …). Description: Octet tandem; competitor 16E17. The procedure: as §1, §2
Test [11] shares this target. Description: Octet tandem; competitor 15A7. The procedure: as §1, §2
For test [12], the target named is PSGL-1(ECD)-hFc1 S116A protein (Sino Biological) (human). The test is described as follows: ELISA; against WT PSGL-1(ECD)-hFc1. The procedure: as §3
Test [13] deals with PSGL-1(ECD)-hFc1 I121A protein (Sino Biological) (human). The test is described as follows: ELISA; against WT PSGL-1(ECD)-hFc1. As to the method:
as §3

For test [14], the target named is T3, Biotin PSGL-1(290-310) peptide. The test is described as follows: ELISA; against WT PSGL-1(ECD)-hFc1. The procedure: as §3
In test [15] the target is PSGL-1(ECD)-hFc1 M119A protein (Sino Biological) (human). The test is described as follows: ELISA; against WT PSGL-1(ECD)-hFc1. As to the method:
as §3

Test [16] has as its target T2, Recombinant human PSGL-1(ECD)-hFc1 (R&D …). Description: Octet tandem; competitor 19N05. As to the method:
as §1, §2

For test [17] the target is unchanged. Description: Octet tandem; competitor 18K07. As to the method:
as §1, §2

For test [18] the target is unchanged. The test is described as follows: Octet tandem; competitor 19L04. As to the method:
as §1, §2

Test [19] shares this target. The test is described as follows: Octet tandem; competitor 18F17. The procedure: as §1, §2
The target is the same in test [20]. The test is described as follows: Octet tandem; competitor 20G13. As to the method:
as §1, §2

Test [21] addresses T7, Sulfotyrosine CCR2b biotin peptide (human).
T7 construct: also called CCR2b peptide
T7 peptide: TTFFD[sY]D[sY]GAPSHGGK(Biotin)
Description: ELISA, plate-bound peptide.

In test [22] the target is T8, Biotin Y46,48,51(SO3) PSGL-1(42-62) peptide (human, sulfotyrosine at Y46, Y48 and Y51; C-terminal Lys-biotin).
T8 construct: also called fully sulfated N-terminal PSGL-1 peptide
T8 peptide: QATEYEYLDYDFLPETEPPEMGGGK
Description: ELISA, plate-bound peptide.

Chain of PSGL-1(ECD)-hFc1 I121A protein (Sino Biological) (human) (chain, as listed by the source I121A I121A): as the sequence (chain, as listed by the source S116A S116A) above, with A75S, I80A counted along it

B1: 18F17 (antibody, V domains shown)
VH: QVTLKESGPGILQPSQTLSLTCSFSGFSLSTFGMGVGWIRQPSGKGLEWLAHIWWDDDKYYNPALKSRLTISKDTSKNQVFLKIANVDTADTATYYCAIYYDYGVGFDYWGQGTTLTVSS
VL: DIVMTQAAPSVPVTPGESVSISCRSSKSLLHSNGYTFLYWFLQRPGQSPQLLIYRMSNLASGVPDRFSGSGSGTAFTLRISRVEAEDVGVYYCMQHLEYPFTFGTGTKLEIK
notes: Non-functional anti-PSGL-1 mAb (Verseau); only variable domains given
B1: the concentration for a half-maximal effect (EC50 (read off the curve)) (usually the midpoint of the concentration-response curve) in test [1] was roughly 0.7 nM. Further, the “% binding of analyte mAb” value in test [2] was found to be 26.9%; in test [10] it was 124%; in test [11], 61.9%; in test [16], 84.2%; in test [17], 90.7%; in [18], 68.7%. The “% binding of analyte mAb” value is 28.2% in test [19] and 22% in [20]. Moreover, the EC50 (commonly the midpoint of the concentration-response curve) in test [3] is 0.54 nM; in [4], 0.55 nM; in test [5] it was less than 0.5 nM; in test [6], 0.6 nM. In addition, the binding result in test [7], in [8] and in test [9] was “no binding (tested: 10 nM)” each time. Besides, the EC50/EC50WTprot in test [12] is 0.67 fold; in test [13], 0.68 fold; in test [14], less than 1 fold; in test [15] it was 0.74 fold.

B2: 06G08 (antibody, IgG4, V domains shown)
VH: EVKLLESGGGVVQPGGSLRLSCAVSGFTFSNYAMHWVRQAPGKGLEWVAVISFDGSNKYTADSVQGRFTISRDNSKNTLYLQMNSLTPEDTAVYYCASRIIRTVAGGDYWGQGTLVTVSS
VL: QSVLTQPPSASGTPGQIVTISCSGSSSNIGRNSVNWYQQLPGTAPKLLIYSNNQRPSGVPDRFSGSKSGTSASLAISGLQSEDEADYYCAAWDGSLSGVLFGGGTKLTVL
For B2, in test [21], the binding result is reported as “no binding (tested: 20 nM)”. The molecule also came in with an EC50 in test [22] of 0.71 nM.
